Target: T1, fibronectin type III domains 1-5 of human tenascin-C (human, UniProt P24821 625-1075)
T1 construct: range 625-1075; Expressed in HEK293 cells, purified on Streptactin XT; coated on the ELISA plate; also called TN1-5
T1 sequence (looked up): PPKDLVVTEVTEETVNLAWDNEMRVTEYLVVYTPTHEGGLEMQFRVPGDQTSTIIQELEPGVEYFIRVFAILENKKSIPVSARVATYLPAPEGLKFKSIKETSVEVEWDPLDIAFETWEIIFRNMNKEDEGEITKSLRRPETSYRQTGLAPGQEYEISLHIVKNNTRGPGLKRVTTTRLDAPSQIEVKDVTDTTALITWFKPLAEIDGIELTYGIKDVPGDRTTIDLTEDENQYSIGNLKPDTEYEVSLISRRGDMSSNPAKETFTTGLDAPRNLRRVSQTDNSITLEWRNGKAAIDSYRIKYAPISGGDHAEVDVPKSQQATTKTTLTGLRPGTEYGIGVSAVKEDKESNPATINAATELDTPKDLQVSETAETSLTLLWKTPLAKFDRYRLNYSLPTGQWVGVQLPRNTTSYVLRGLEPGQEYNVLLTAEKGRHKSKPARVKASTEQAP
Test: ELISA, TN1-5 coated, biotinylated FN4-6 titrated 1 nM to 1 µM

B1: fibronectin type III domains 4-6 of human fibronectin (double Strep-tagged) (other, UniProt P02751 909-1175, looked up, not shown: small tags and cut ends)
chain: SPRDLQFVEVTDVKVTIMWTPPESAVTGYRVDVIPVNLPGEHGQRLPISRNTFAEVTGLSPGVTYYFKVFAVSHGRESKPLTAQQTTKLDAPTNLQFVNETDSTVLVRWTPPRAQITGYRLTVGLTRRGQPRQYNVGPSVSKYPLRNLQPASEYTVSLVAIKGNQESPKATGVFTTLQPGSSIPPYNTEVTETTIVITWTPAPRIGFKLGVRPSQGGEAPREVTSDSGSIVVSGLTPGVEYVYTIQVLRDGQERDAPIVNKVVTPLS
notes: range 909-1175; Biotinylated with Biotin-Ahx-NHS for the ELISA on TN1-5; also called FN4-6
Kd: 44 nM
